From patent publication US12318454
Values belong to the binder of their own block, whether it stands above or below them. Numbered stars: 1 amine (or outer) side, 2 acyl side, 3 side chain; on linkers, the order of the positions; unused ones are H or OH. Bridge positions count the residues as written; N and C are the ends. Square brackets hold non-standard residues; d marks the D form. Ends that are not written are not given here. * marks the point of attachment. DM4 = maytansinoid, two hindering methyls on maytansine side, COc1cc2cc(c1Cl)N(C)C(=O)C[C@H](OC(=O)[C@H](C)N(C)C(=O)CCC(C)(C)S*)[C@]1(C)O[C@H]1[C@H](C)[C@@H]1C[C@@](O)(NC(=O)O1)[C@H](OC)/C=C/C=C(\C)C2; DM3 = maytansinoid, one hindering methyl on maytansine side, COc1cc2cc(c1Cl)N(C)C(=O)C[C@H](OC(=O)[C@H](C)N(C)C(=O)CCC(C)S*)[C@]1(C)O[C@H]1[C@H](C)[C@@H]1C[C@@](O)(NC(=O)O1)[C@H](OC)/C=C/C=C(\C)C2; disulfide linker, one methyl on bicycle side = not defined here; fluorescein = fluorescein label on the Lys side chain; unhindered disulfide linker = not defined here; 1Nal = N[C@@H](Cc1cccc2ccccc12)C(=O)O; TBMB = c1c(C[*:1])cc(C[*:3])cc1C[*:2]; disulfide linker = not defined here; Tle = CC(C)(C)[C@H](N)C(=O)O; DM1 = maytansinoid; βAla = NCCC(=O)O; Sar = CNCC(=O)O

Assays:
[1] = target: human MT1-MMP hemopexin domain (residues Cys319-Gly511, N-terminally His6-tagged soluble protein) (human) (UniProt P50281); assay: FP competition on human MT1-MMP hemopexin domain (per paragraph 249; tracer not given)
[2] = target: human MT1-MMP hemopexin domain (residues Cys319-Gly511, N-terminally His6-tagged soluble protein) (human) (UniProt P50281); assay: FP competition on human MT1-MMP hemopexin domain (footnote a: tracer 17-69-07-N040; footnote e: 17-69-07-N004)
[3] = target: dog MT1-MMP hemopexin domain (dog); assay: FP competition, dog MT1-MMP hemopexin domain
[4] = target: human MT1-MMP hemopexin domain (residues Cys319-Gly511, N-terminally His6-tagged soluble protein) (human) (UniProt P50281); assay: FP competition, Human/cyno MT1-MMP hemopexin domain
[5] = target: human MT1-MMP hemopexin domain (residues Cys319-Gly511, N-terminally His6-tagged soluble protein) (human) (UniProt P50281); assay: FP competition on human MT1-MMP hemopexin domain, tracer 17-69-07-N040 (footnote f)
[6] = target: human MT1-MMP hemopexin domain (residues Cys319-Gly511, N-terminally His6-tagged soluble protein) (human) (UniProt P50281); assay: fluorescence polarisation with the fluoresceinated peptide

- Kd [1]: 0.82 nM
- Kd [2]: 0.82 nM
- Kd [3]: 0.9 nM
- Kd [4]: 0.82 nM
B1: 17-69-07-N219 (peptide)
peptide: H-G[Sar][Sar][Sar][Sar][Sar][Sar][Sar][Sar][Sar][Sar]ACYNEFGCEDFYDIC
modifications: linker 13-19-26 via TBMB; not fully specified (C-terminus)

- Kd [2]: 0.7 nM
B2: BT17BDC-17 (peptide)
peptide: {DM1-unhindered disulfide linker}-[βAla][Sar][Sar][Sar][Sar][Sar][Sar][Sar][Sar][Sar][Sar]AC[dA]NE[1Nal][dA]CEDFYD[Tle]C
modifications: linker 13-19-26 via TBMB; reading uncertain; also: exact linker structure not given here

- Kd [1]: 0.95 nM
B3: 17-69-07-N225 (peptide)
peptide: Ac-G[Sar][Sar][Sar][Sar][Sar][Sar][Sar][Sar][Sar][Sar]ACYNEFGCEDFYDIC
modifications: linker 13-19-26 via TBMB; not fully specified (C-terminus)

- Kd [5]: 2.95 nM
B4: BT17BDC-20 (peptide)
peptide: {DM3-disulfide linker, one methyl on bicycle side}-[βAla][Sar][Sar][Sar][Sar][Sar][Sar][Sar][Sar][Sar][Sar]AC[dA]NE[1Nal][dA]CEDFYD[Tle]C
modifications: linker 13-19-26 via TBMB; reading uncertain; also: exact linker structure not given here

- Kd [2]: 0.5 nM
B5: BT17BDC-19 (peptide)
peptide: {DM4-disulfide linker}-[βAla][Sar][Sar][Sar][Sar][Sar][Sar][Sar][Sar][Sar][Sar]AC[dA]NE[1Nal][dA]CEDFYD[Tle]C
modifications: linker 13-19-26 via TBMB; reading uncertain; also: exact linker structure not given here

- Kd [2]: 0.99 nM
B6: BT17BDC-18 (peptide)
peptide: {DM1-disulfide linker, one methyl on bicycle side}-[βAla][Sar][Sar][Sar][Sar][Sar][Sar][Sar][Sar][Sar][Sar]AC[dA]NE[1Nal][dA]CEDFYD[Tle]C
modifications: linker 13-19-26 via TBMB; reading uncertain; also: exact linker structure not given here

- Kd [6]: 2.2 nM
B7: 17-69-07-N258 (peptide)
peptide: fluorescein-[βAla][Sar][Sar][Sar][Sar][Sar][Sar][Sar][Sar][Sar][Sar]AC[dA]NE[1Nal][dA]CEDFYD[Tle]C
modifications: linker 13-19-26 via TBMB; not fully specified (C-terminus); printed as Fluorescein-(bAla)-Sar10-A-(17-69-07) D-Ala1 1Nal4 D-Ala5 tBuGlyl1
